# Results from the supplement of paper PMC12764529.
# ± gives the half width of the 95% confidence interval.
# Assay: folding stability dG unfold from trypsin proteolysis; higher = more stable
# Procedure, shortened: (§1)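 Digests were run with trypsin and chymotrypsin at 11 concentrations in threefold dilutions, plus a no-protease condition, on designed mini-proteins in a PA-tagged cDNA display construct. The mini-proteins were under 80 residues, had no cysteine, and were kept only when AlphaFold2 dimer inter-PAE was above 15. After sequencing, Bayesian fitting of the counts gave K50, from which unfolding free energy was derived against a sequence-predicted unfolded-state K50 and a shared folded-state K50, per protease or combined.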
row,Sequence,folding stability dG unfold [kcal/mol]
1,MVVTVETTMIDPEGNPLTKTFTVPSSVVEALKEAGKPLTKEELEKLVKEKVEAEAKKYNVSVEVTLVSFERS [r1_174_JUSTAS],2.21 ± 0.17
2,SSITVVETREERVTLPDGREVTRRETRVVELSEEELRRLLRERLREALREAGIEEVTEEDLDSPEVLAALSA [r9_263_TrROS_Hall],1.2 ± 0.054
3,SAGGVEELAKELAERLREELERRLGVEKVEVVDVEVVEVDEETGTVTVRITVRLPDGELLELELELHLDSAG [r5_20_TrROS_Hall],3.47 ± 0.17
4,SAGGSAGGSAGSMTITRTLPGLTVTFTRLPDPNKETITFKLGDKWTTVPASTLSSSVISLSAGGSAGGSAGG [r11_152_JUSTAS],-0.434 ± 0.38
5,SMPLSEEEARALAEALAAEVAAAAAAAGVAGVEVPVEISRTEEGGWTITLTVTLHAGAAPVGVRPVVVEVAS [r1_364_JUSTAS],1.19 ± 0.027
6,SKEEKPPEVKTFKVKKIEFDPETKKITVEVDGKKLTLELKPGQEVEIFKDGKEIRVVRLAPPPPEKKEKKSA [r9_551_TrROS_Hall],1.94 ± 0.36
7,SAGGEVEVKEITMTAEELRELIEELKKEGYLVVIENKTGEKKVIPVKEDDLKPGDEVKIRVFKLKKPSAGGS [r16_31_TrROS_Hall],0.537 ± 0.14
8,SAGKIIKFKTKANENASITVPEENKILKIKVYKPNGTLLDEYEVEVKPNKTLVLNIPDDNLYVVVEPIPSAG [r5_797_TrMRF],0.56 ± 0.025
9,SAGGGQPVKITEIENIDPNNGKITFEIVDPDDGRPLKIKIPVQRRPNGKPYLQIEIEVDGKKWEIMFMSAGG [r13_993_TrROS],1.7 ± 0.17
10,SAGGSAGGSAGMYRVEIEIEMSKEQLEALKKNKNLKPGQKIDLKVKIKIEPVKLDKNGKLSAGGSAGGSAGG [r17_194_TrROS_Hall],1.57 ± 0.051
11,SAEVRARLEYDPVSGDLVLEVERPLPNGDVIRARVDLVNPVLRVEHLPVRDGVPLPRETELDLPADALVSAG [r14_64_TrMRF],0.394 ± 0.084
12,SAGGSAGGMLEITVPSRREPDSLEVEITITDPSSNTTTTLRRRFPPGDETSPEEIAEKIAAELSSAGGSAGG [r6_234_JUSTAS],0.677 ± 0.13
13,SAGGSAGGSAKPKVKIKIEVTVNEDGTVTVRAEIEVNGKKYTIEVKIKIKAPKPEKVKLFKKSAGGSAGGSA [r18_507_TrROS_Hall],0.919 ± 0.066
14,SAGGSAMLIRFVRDDKTVELRPFSSIEEARAFLEKGPVEEIEPREAPGGERVTFRAKLPDGEVLVESAGGSA [r15_632_JUSTAS],-0.466 ± 0.23
15,SAMPVLVVIKRTVVLPRPGEELAKYEDPDGKVRRRVVVETLVVEVNPEDLPELVEFFKSLGIDEISVFGSAG [r14_509_TrMRF],2.18 ± 0.039
16,SAGLRLVLELELEVPPDVPPERVREAVEREVRDILGRLGIPLPPDARIVVEEVERRGRRVRFRVEVDFPSAG [r14_735_TrMRF],5.13 ± 0.32
17,SAGGSAGGSSSMTLTTDDGSTLDSVTRDPNSDTATVTYSGSGETVTATATTLPDGSVVVTVVTSAGGSAGGS [r12_839_JUSTAS],1.26 ± 0.054
18,SAGGSMPPETEVTVTVEEFEEDPSRRLRVTITTPDGTVVTTDLENPGELSPEEEARIAALAAALAASAGGSA [r2_17_JUSTAS],0.486 ± 0.026
19,SAGGSAETKTVVIEVKLPEELKGLSAEELAALLAEELAKKPGVKEVTVTVERDEETDTLRVTITYPSAGGSA [r15_1029_TrROS_Hall],3.21 ± 0.05
20,SAGGSAGGSAGGKPKPIKIEVYYDEKTGKLLVKVTLPNGKPVTLEFDDIGDIDEVKKAAGSAGGSAGGSAGG [r7_41_TrMRF],1.36 ± 0.092
21,SAGGSAGGSMPVVRIKVRYFNKDGKPVKEKEITITLPAEEITADELRKRLEEAGYEIVEIEVVSAGGSAGGS [r12_611_TrROS_Hall],3.42 ± 0.08

row,Sequence,folding stability dG unfold [kcal/mol]
1,SAGGSAGGSAGGSTLQSNASGIFTLYLAGSNLTVTLSKAELPKIPADFPIPSSATFTAGSAGGSAGGSAGGS [r4_91_JUSTAS],0.215 ± 0.16
2,SAGGSAGGSAGGSMVSVEEFEVELPGGSKVKATVLIDPEGPLTVLLGDETFILPKEELGSAGGSAGGSAGGS [r10_649_JUSTAS],-0.22 ± 0.2
3,SAGGSAGGSAGGWRTVWIRMPPGQSPEQAVDEIKDHFPPGEPIEVEYHPNDGFFRVKIPSAGGSAGGSAGGS [r10_163_TrROS],0.654 ± 0.08
4,SAGGSAGGSAGGSSLYVPGKGYIVERDEAKGYLVIKPIEPDGIVPDAEVFYKPPSVPLISAGGSAGGSAGGS [r4_409_JUSTAS],-0.879 ± 0.22
5,SASMIQKYFKSQGYKIEKIEEKTLPNGERVVSYKITSTVNVPPNEKGVSKPVKKTTELTLSTEEAIKLGSAG [r14_16_JUSTAS],0.304 ± 0.14
6,SAGGFKLKIDDIEFHDDYLVIRLKIEVPVNDQTMKFELTLIIPVPPPPPPKPPVDPEEYRDPDGKWHSAGGS [r8_234_TrROS],2.19 ± 0.11
7,SAGGMTLRITTADGRVIEIEADSLEDALAALRTLLGLKPGDVLTVEVVVEVDGEKKTFTLTIVLPPEPSAGG [r13_145_TrROS_Hall],4.95 ± 0.14
8,SAGGMLVRVRFRIVEPGTGEPFEFEALLFFGEDGSFELVFPDGTRLLFPPEARIEVLDAELLDPDEASAGGS [r16_223_TrMRF],3.96 ± 0.19
9,KKKKPPKVVKVEIKFDKKTKKITVKVDGKTFTITLPDGKKIEITVPAGMSEEEIKALAKKLAKELEEKLKKS [r1_25_TrROS_Hall],3.73 ± 0.12
10,SAGMPPVKVEIEVYPVRVEGELLYIAKIVRPDGSVLVIAFKPEELIEAIKKEFPDIEEIKFSPFETPPESAG [r5_25_TrMRF],3.3 ± 0.095
11,SAGGSAGGGMPMNIKVEEITSETIPPDVTVSETKVIDPSGKELKYLTVTTVRTDGKTSVLTVEGSAGGSAGG [r6_830_JUSTAS],0.201 ± 0.087
12,SAGGGAIVRARFPRDIPELVRAYKILEAAAPDEEVTLLLPEKPVVVVRREKVGDYFLLEVRLPEDLLSAGGS [r16_404_TrMRF],0.647 ± 0.2
13,SAGGSAFKIKIPEDLRGAPPGGKIEIEFPNGVRAEIEYKDGEWVIEVKHYGPNGKPVEEHEFRIKVSAGGSA [r15_558_TrROS],1.47 ± 0.046
14,SAGGSAGGSAVVTLSPDGRRITITSRTVTYFKVTNTDDIAIETSVETVVTPLPSLGSPEVLASAGGSAGGSA [r18_6_JUSTAS],3.04 ± 0.13
15,SAGGKEVKITIEYDEETKEVRVTIEKDGKEITVTMTAEELKKLLEELEKLPPVVVKDKDGKEKVVLLSAGGS [r8_332_TrROS_Hall],1.14 ± 0.037
16,SAGGKKIEIYKLKDALIIKIPEKGLLILLGNDTAIIFKVKSIKNNGKPKIISSKIISLEEILDLIKSSAGGS [r8_174_TrMRF],2.79 ± 0.12
17,SAGGSAGGSSMYTYPELGVKVTTTPLPTDSTLVTATFPDGSVYKFTVDPSGNLVTSTPIVVNSSAGGSAGGS [r12_56_JUSTAS],0.326 ± 0.018
18,SAGGSAGGSAGGETVTIVDKKTNKTITYNKETNEFTITTKNGKKKTIKVDSPEEALKALSAGGSAGGSAGGS [r10_849_TrROS_Hall],0.964 ± 0.02
19,SAGGWTIEEIIDAIREAKENGPGQKVEIEIPFGGGPVRVSIEVPPDGRVKIEIQYDNKPIWEIEIPVSAGGS [r16_611_TrROS],1.98 ± 0.14
20,SARIAEILRELGMEVSVENHPDGMNEITFKFPNGYKIQVHMSPNGIDVQIQPPEGERRTFSIDEIKDLLSAG [r14_578_TrROS],2.23 ± 0.071
21,SAGGSAGGSAGGKVIVKEITINEDGTVTIKGEIFDENGELIAEAEFKFRLGDGGPIEFESAGGSAGGSAGGS [r10_484_TrMRF],2.18 ± 0.18

# Assay: folding stability dG unfold from chymotrypsin proteolysis; higher = more stable
# Procedure, shortened: as §1
row,Sequence,folding stability dG unfold [kcal/mol]
1,MVVTVETTMIDPEGNPLTKTFTVPSSVVEALKEAGKPLTKEELEKLVKEKVEAEAKKYNVSVEVTLVSFERS [r1_174_JUSTAS],2.7 ± 0.066
2,SSITVVETREERVTLPDGREVTRRETRVVELSEEELRRLLRERLREALREAGIEEVTEEDLDSPEVLAALSA [r9_263_TrROS_Hall],2.2 ± 0.032
3,SAGGVEELAKELAERLREELERRLGVEKVEVVDVEVVEVDEETGTVTVRITVRLPDGELLELELELHLDSAG [r5_20_TrROS_Hall],3.08 ± 0.13
4,SAGGSAGGSAGSMTITRTLPGLTVTFTRLPDPNKETITFKLGDKWTTVPASTLSSSVISLSAGGSAGGSAGG [r11_152_JUSTAS],-0.142 ± 0.34
5,SMPLSEEEARALAEALAAEVAAAAAAAGVAGVEVPVEISRTEEGGWTITLTVTLHAGAAPVGVRPVVVEVAS [r1_364_JUSTAS],1.81 ± 0.026
6,SKEEKPPEVKTFKVKKIEFDPETKKITVEVDGKKLTLELKPGQEVEIFKDGKEIRVVRLAPPPPEKKEKKSA [r9_551_TrROS_Hall],2.95 ± 0.27
7,SAGGEVEVKEITMTAEELRELIEELKKEGYLVVIENKTGEKKVIPVKEDDLKPGDEVKIRVFKLKKPSAGGS [r16_31_TrROS_Hall],0.691 ± 0.39
8,SAGKIIKFKTKANENASITVPEENKILKIKVYKPNGTLLDEYEVEVKPNKTLVLNIPDDNLYVVVEPIPSAG [r5_797_TrMRF],1.17 ± 0.1
9,SAGGGQPVKITEIENIDPNNGKITFEIVDPDDGRPLKIKIPVQRRPNGKPYLQIEIEVDGKKWEIMFMSAGG [r13_993_TrROS],1.67 ± 0.16
10,SAGGSAGGSAGMYRVEIEIEMSKEQLEALKKNKNLKPGQKIDLKVKIKIEPVKLDKNGKLSAGGSAGGSAGG [r17_194_TrROS_Hall],2.43 ± 0.036
11,SAEVRARLEYDPVSGDLVLEVERPLPNGDVIRARVDLVNPVLRVEHLPVRDGVPLPRETELDLPADALVSAG [r14_64_TrMRF],0.855 ± 0.039
12,SAGGSAGGMLEITVPSRREPDSLEVEITITDPSSNTTTTLRRRFPPGDETSPEEIAEKIAAELSSAGGSAGG [r6_234_JUSTAS],0.332 ± 0.23
13,SAGGSAGGSAKPKVKIKIEVTVNEDGTVTVRAEIEVNGKKYTIEVKIKIKAPKPEKVKLFKKSAGGSAGGSA [r18_507_TrROS_Hall],-0.2 ± 0.84
14,SAGGSAMLIRFVRDDKTVELRPFSSIEEARAFLEKGPVEEIEPREAPGGERVTFRAKLPDGEVLVESAGGSA [r15_632_JUSTAS],-0.743 ± 0.33
15,SAMPVLVVIKRTVVLPRPGEELAKYEDPDGKVRRRVVVETLVVEVNPEDLPELVEFFKSLGIDEISVFGSAG [r14_509_TrMRF],2.22 ± 0.031
16,SAGLRLVLELELEVPPDVPPERVREAVEREVRDILGRLGIPLPPDARIVVEEVERRGRRVRFRVEVDFPSAG [r14_735_TrMRF],5.08 ± 0.18
17,SAGGSAGGSSSMTLTTDDGSTLDSVTRDPNSDTATVTYSGSGETVTATATTLPDGSVVVTVVTSAGGSAGGS [r12_839_JUSTAS],0.784 ± 0.092
18,SAGGSMPPETEVTVTVEEFEEDPSRRLRVTITTPDGTVVTTDLENPGELSPEEEARIAALAAALAASAGGSA [r2_17_JUSTAS],1.96 ± 0.027
19,SAGGSAETKTVVIEVKLPEELKGLSAEELAALLAEELAKKPGVKEVTVTVERDEETDTLRVTITYPSAGGSA [r15_1029_TrROS_Hall],2.94 ± 0.043
20,SAGGSAGGSAGGKPKPIKIEVYYDEKTGKLLVKVTLPNGKPVTLEFDDIGDIDEVKKAAGSAGGSAGGSAGG [r7_41_TrMRF],2.97 ± 0.16
21,SAGGSAGGSMPVVRIKVRYFNKDGKPVKEKEITITLPAEEITADELRKRLEEAGYEIVEIEVVSAGGSAGGS [r12_611_TrROS_Hall],3.63 ± 0.054
